Patent publication US20080181891A1 (Pfizer, published 2008)

Experiments:
cynomolgus monkey IGF-IR = molecular target: T1, cynomolgus monkey IGF-IR (cynomolgus monkey, UniProt G7P9I7 31-1343); experiment: flow cytometry, biotinylated antibody on cynomolgus tissue culture cells, half maximal binding
T1 construct: whole, on cells; also called IGF-IR on cynomolgus tissue culture cells
Procedure: (§1) FACS analysis was performed to determine the affinity of the antibody of the invention for IGF-IR from other animals, particularly the old world monkeys described above. Aliquots of human and monkey cells (cynomolgus) (5×10⁵) were incubated for 1 hour on ice with increasing concentrations of biotinylated anti-IGF-IR antibodies of the invention. The samples were incubated for 30 minutes on ice with streptavidin-conjugated RPE (phycoerythrin). Binding was measured by flow cytometry and analyzed with the histograms of fluorescence intensity (FI2-H) versus cell number (Counts) using CellQuest software. Binding (Kd) was calculated for each antibody from graphs of mean fluorescence intensity versus antibody concentration. In most experiments, binding was measured in cultured human MCF-7 cells and cynomolgus tissue culture cells. Depletion of the antibody was controlled by measuring binding over a range of cell concentrations.

[1] = molecular target: T2, human insulin-like growth factor I receptor (IGF-IR) (human, UniProt P08069 31-1367); experiment: flow cytometry, biotinylated antibody on human cells (MCF-7), half maximal binding
T2 construct: whole, on cells; also called IGF-1R; human IGF-IR
T2 sequence (P08069 31-1367): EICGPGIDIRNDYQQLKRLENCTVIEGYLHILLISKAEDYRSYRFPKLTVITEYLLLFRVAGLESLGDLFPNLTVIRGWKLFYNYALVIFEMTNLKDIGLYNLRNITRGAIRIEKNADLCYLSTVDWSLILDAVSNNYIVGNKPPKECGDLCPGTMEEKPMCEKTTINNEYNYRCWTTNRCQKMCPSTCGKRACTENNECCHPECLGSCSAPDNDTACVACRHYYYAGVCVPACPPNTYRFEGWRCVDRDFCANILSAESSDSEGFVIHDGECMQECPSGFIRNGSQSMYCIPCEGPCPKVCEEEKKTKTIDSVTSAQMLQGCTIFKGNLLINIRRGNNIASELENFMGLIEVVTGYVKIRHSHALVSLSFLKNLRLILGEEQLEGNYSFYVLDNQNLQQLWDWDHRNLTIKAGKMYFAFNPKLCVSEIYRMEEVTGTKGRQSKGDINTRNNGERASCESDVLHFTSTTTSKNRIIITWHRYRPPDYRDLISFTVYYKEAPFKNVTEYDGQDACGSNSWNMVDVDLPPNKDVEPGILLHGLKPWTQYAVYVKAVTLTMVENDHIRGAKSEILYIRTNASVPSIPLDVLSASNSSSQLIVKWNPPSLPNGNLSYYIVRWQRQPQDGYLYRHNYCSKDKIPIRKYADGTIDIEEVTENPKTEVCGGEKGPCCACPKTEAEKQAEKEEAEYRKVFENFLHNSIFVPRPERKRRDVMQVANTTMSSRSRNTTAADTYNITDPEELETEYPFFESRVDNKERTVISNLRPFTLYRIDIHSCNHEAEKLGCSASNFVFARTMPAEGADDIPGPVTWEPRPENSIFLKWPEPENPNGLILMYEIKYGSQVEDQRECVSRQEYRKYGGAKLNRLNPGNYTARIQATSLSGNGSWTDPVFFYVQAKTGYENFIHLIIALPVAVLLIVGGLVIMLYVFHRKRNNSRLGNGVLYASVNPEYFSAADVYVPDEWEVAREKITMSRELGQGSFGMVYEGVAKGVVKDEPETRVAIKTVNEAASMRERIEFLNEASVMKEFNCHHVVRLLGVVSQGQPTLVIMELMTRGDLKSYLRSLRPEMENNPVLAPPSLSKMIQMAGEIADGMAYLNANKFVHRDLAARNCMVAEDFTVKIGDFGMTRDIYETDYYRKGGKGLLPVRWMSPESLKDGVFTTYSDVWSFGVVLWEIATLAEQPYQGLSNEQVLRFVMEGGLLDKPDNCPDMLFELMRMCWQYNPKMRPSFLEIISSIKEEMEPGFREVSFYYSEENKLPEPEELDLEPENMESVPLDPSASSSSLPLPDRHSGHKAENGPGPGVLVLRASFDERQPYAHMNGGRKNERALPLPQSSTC
Procedure: as §1

[2] = molecular target: T2, human insulin-like growth factor I …; experiment: cell-based or functional assay
[3] = molecular target: T2, human insulin-like growth factor I …; experiment: competition with [125I]-IGF-I for binding to IGF-IR-transfected NIH-3T3 cells, scintillation counting
Procedure: […] experiments were performed to quantitate the ability of the antibody of the invention to inhibit IGF-I binding to IGF-IR in a cell-based assay. IGF-IR-transfected NIH-3T3 cells (5×10⁴/ml) were plated in 100 μl of DMEM high glucose media supplemented with L-glutamine (0.29 mg/ml), 10% heat-inactivated FBS, and 500 μg/ml each of geneticin, penicillin and streptomycin in 96-well U-bottom plates. The plates were incubated at 37° C., 5% CO₂ overnight to allow cells to attach. The media was decanted from the plates and replaced with 100 μl fresh media per well. For testing, the antibody was diluted in assay media (DMEM high glucose media supplemented with L-glutamine, 10% heat-inactivated FBS, 200 μg/ml BSA and 500 μg/ml each of geneticin, penicillin and streptomycin) to the desired final concentration. All samples were performed in triplicate. The plates were incubated at 37° C. for ten minutes. The [¹²⁵I]-IGF-I was diluted to a concentration of 1 μCi/ml in assay media and added 50 μl per well of the plate. As a control for background radioactivity, cold IGF-I was added to a final concentration of 100 ng/ml. […] The samples were transferred to a scintillation plate, 150 μl OptiPhase Supermix was added and the signal was read using a Wallace MicroBeta counter. […]

mouse IGF-IR = molecular target: T3, mouse IGF-IR (mouse, UniProt Q60751 31-1373); experiment: cells treated with antibody, IGF-I stimulation, immunoprecipitation of IGF-IR and Western blot
T3 construct: whole, on cells
T3 sequence (Q60751 31-1373): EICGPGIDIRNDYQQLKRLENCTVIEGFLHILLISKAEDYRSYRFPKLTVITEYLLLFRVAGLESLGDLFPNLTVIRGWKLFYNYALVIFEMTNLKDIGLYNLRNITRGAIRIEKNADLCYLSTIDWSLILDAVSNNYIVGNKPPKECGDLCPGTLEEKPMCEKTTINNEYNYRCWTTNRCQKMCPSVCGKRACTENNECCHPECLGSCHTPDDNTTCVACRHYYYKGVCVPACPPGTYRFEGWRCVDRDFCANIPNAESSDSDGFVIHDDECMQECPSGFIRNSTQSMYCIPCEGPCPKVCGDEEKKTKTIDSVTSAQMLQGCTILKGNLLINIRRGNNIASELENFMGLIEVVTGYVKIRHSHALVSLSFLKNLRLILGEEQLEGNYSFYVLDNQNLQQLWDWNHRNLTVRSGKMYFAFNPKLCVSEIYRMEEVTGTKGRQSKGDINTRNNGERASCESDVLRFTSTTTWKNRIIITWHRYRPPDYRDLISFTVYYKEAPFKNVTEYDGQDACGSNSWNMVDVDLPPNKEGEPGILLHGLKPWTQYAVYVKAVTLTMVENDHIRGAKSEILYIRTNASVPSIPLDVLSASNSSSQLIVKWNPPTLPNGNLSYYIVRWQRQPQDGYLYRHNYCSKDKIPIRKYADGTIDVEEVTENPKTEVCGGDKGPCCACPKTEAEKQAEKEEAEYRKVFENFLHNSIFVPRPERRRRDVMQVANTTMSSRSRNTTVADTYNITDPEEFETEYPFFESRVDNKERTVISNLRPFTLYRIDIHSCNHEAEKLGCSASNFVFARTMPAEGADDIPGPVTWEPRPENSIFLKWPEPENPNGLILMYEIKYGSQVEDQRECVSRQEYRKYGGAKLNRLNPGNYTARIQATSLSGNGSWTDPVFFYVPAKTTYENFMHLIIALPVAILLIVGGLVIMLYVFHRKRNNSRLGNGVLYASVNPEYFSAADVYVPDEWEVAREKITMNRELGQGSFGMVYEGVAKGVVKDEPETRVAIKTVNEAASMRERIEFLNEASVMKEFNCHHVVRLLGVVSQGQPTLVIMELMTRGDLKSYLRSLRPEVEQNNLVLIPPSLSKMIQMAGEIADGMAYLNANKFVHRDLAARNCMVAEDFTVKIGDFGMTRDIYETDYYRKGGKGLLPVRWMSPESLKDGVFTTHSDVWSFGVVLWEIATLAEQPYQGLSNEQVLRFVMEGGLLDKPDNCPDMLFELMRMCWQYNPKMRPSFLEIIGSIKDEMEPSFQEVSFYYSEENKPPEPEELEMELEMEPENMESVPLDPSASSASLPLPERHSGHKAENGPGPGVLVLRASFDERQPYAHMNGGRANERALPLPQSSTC
Procedure: To perform immunoprecipitation experiments, cells were plated in DMEM high glucose media supplemented with L-glutamine (0.29 mg/ml), 10% heat-inactivated FBS, and 500 μg/ml each of geneticin, penicillin and streptomycin to 50% confluence in T25 flasks. 100 μl of an antibody of the invention in Hank's buffered saline solution (HBSS; Gibco BRL) at a concentration of 1 μg/ml was added. The plates were incubated for 30 minutes at 37° C. in an incubator and then stimulated cells with IGF-I at 100 ng/ml for 10 minutes at room temperature. The cells were lysed in RIPA buffer (Harlow and Lane, supra) and immunoprecipitated the IGF-IR with 2 μg of pan-specific SC-713 anti-IGF-IR antibody (Santa Cruz) plus protein A agarose beads for 1 hour at 4° C. The beads were pelleted and washed three times with PBS/T (PBS+0.1% Tween-20) and then boiled in 40 μl Laemmli buffer containing 5% ME.
The samples prepared as described above were then analyzed by Western blot. 12 μl of each sample were loaded per lane on 4-10% gradient Novex™ gels run with 1×MES buffer (Novex™). Gels were run at 150V for 1 hour or at 200V for approximately 30 minutes. The gel was transferred to a membrane in Novex™ transfer buffer with 10% methanol either overnight at 100 mA or for 1-1.5 hours at 250 mA. […]

T1 sequence (G7P9I7 entry or part of it): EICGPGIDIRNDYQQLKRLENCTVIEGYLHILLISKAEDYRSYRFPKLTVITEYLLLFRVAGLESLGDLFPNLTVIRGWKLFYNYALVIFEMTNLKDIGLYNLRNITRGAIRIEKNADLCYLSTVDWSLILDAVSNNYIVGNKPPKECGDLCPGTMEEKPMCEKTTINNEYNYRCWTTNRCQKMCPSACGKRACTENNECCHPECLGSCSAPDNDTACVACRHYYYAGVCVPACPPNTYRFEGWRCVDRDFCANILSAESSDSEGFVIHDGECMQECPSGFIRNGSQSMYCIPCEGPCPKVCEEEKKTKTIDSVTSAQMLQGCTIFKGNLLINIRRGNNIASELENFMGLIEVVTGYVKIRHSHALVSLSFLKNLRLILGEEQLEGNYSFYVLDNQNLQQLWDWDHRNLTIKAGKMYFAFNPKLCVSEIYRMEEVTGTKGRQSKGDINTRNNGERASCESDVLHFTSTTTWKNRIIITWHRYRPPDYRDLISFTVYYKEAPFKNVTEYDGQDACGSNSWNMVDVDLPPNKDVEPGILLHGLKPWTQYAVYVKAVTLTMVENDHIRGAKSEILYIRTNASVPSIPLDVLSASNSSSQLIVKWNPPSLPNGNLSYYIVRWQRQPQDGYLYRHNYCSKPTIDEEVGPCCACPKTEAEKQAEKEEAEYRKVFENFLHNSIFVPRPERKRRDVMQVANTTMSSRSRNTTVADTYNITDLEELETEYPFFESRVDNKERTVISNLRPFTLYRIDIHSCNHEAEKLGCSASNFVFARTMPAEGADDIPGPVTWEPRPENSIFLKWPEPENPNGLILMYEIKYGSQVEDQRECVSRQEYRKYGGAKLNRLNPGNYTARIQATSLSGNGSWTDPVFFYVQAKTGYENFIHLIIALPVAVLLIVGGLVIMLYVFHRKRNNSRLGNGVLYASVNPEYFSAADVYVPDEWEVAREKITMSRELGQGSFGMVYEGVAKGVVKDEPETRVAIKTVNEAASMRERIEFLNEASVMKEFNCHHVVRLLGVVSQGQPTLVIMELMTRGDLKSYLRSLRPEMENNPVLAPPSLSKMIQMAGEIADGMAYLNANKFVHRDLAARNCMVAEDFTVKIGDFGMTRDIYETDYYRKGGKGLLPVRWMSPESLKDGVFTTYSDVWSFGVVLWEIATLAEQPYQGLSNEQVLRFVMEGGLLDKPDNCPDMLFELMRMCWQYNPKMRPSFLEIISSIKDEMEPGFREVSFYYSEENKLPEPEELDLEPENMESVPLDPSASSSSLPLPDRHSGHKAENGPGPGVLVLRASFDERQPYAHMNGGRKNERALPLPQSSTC

B1: anti-IGF-IR antibody 2.12.1fx (antibody, human IgG2, kappa, V domains shown)
VH: QVQLVESGGGLVKPGGSLRLSCAASGFTFSDYYMSWIRQAPGKGLEWVSYISSSGSTRDYADSVKGRFTISRDNAKNSLYLQMNSLRAEDTAVYYCARDGVETTFYYYYYGMDVWGQGTTVTVSS
VL: DIQMTQSPSSLSASVGDRVTITCRASQDIRRDLGWYQQKPGKAPKRLIYAASRLQSGVPSRFSGSGSGTEFTLTISSLQPEDFATYYCLQHNNYPRTFGQGTKVEIKR
notes: also called the antibody of the invention; the antibody of this invention
Cynomolgus monkey IGF-IR
  Kd: 0.1 µg/mL
[1]
  Kd: 0.1 µg/mL
[2]
  IC50 of inhibition of IGF-I-induced tyrosine phosphorylation of IGF-IR (ELISA on lysates of IGF-IR-transfected NIH-3T3 cells): 0.42 µg/mL
[3]
  IC50: 0.4 µg/mL
Mouse IGF-IR
  binding result: no binding (tested: 1 µg/ml)
